Assays:
CN19 = test system: T1, CN19
T1 sequence: KRPPKLGQIGRSKRVVIED

CN19 S12A = test system: T2, CN19 S12A
T2 sequence: KRPPKLGQIGRAKRVVIED

CaMKII, sequence (chain): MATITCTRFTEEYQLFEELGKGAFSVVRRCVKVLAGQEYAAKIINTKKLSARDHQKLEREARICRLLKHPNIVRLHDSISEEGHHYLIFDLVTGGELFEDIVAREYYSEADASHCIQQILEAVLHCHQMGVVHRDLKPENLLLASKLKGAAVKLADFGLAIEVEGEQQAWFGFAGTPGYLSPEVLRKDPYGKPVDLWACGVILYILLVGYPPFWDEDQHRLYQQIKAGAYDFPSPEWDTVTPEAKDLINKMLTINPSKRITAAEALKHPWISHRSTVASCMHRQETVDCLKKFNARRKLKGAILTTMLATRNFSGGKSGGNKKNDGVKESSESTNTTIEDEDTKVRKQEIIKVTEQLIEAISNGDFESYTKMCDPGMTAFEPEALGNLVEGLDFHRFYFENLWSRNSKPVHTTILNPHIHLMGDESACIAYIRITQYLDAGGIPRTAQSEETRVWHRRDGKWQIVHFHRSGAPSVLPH

Substance | CaMKII substrate- and auto-phosphorylation (Western) (CaM-KIIN) | AC2 substrate phosphorylation by CaMKII (CN21c) | MAP2 phosphorylation by CaMKII (Western), 5 µM peptide (CN21c) | AC2 substrate phosphorylation by CaMKII (CN21b) | phosphorylation rate by PKC relative to a MARCKS peptide substrate (CN19) | phosphate incorporation by PKC (CN19 S12A)
CaMKII | CaM-KIIN and CN21 block substrate- and T305 but not T286 auto-phosphorylation | The other 21mer peptides, CN21b and CN21c, had minimal or no effect | Only CN21c failed to block MAP2 phosphorylation | The other 21mer peptides, CN21b and CN21c, had minimal or no effect |  | 
PKC |  |  |  |  | with a phosphorylation rate of >50% compared to a peptide derived from a major PKC substrate protein | CN19 but not its S12A mutant was phosphorylated by PKC
